Measured values: patent US20140249045A1 (MEDICINAL BIOCONVERGENCE RESEARCH CENTER, published 2014)

T1: His-LRS-(759-1176) (Homo sapiens (Human), UniProt Q9P2J5 759-1176)
T1 construct: not shown: His tag from pET16a vector
T1 sequence: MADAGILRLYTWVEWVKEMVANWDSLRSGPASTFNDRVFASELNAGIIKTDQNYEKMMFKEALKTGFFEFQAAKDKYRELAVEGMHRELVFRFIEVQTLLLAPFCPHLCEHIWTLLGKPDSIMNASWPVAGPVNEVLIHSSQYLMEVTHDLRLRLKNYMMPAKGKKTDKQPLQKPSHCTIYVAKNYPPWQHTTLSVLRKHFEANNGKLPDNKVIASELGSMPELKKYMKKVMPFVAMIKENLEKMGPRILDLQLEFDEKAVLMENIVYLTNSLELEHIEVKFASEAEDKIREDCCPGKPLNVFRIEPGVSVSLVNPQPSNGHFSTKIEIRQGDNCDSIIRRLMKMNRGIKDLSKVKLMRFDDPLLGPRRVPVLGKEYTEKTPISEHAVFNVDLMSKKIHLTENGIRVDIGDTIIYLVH

T2: myc-tagged isoleucyl-tRNA synthetase (IRS) (UniProt P41252 1-1262)
T2 construct: also called myc-tagged IRS; not shown: myc tag
T2 sequence (looked up): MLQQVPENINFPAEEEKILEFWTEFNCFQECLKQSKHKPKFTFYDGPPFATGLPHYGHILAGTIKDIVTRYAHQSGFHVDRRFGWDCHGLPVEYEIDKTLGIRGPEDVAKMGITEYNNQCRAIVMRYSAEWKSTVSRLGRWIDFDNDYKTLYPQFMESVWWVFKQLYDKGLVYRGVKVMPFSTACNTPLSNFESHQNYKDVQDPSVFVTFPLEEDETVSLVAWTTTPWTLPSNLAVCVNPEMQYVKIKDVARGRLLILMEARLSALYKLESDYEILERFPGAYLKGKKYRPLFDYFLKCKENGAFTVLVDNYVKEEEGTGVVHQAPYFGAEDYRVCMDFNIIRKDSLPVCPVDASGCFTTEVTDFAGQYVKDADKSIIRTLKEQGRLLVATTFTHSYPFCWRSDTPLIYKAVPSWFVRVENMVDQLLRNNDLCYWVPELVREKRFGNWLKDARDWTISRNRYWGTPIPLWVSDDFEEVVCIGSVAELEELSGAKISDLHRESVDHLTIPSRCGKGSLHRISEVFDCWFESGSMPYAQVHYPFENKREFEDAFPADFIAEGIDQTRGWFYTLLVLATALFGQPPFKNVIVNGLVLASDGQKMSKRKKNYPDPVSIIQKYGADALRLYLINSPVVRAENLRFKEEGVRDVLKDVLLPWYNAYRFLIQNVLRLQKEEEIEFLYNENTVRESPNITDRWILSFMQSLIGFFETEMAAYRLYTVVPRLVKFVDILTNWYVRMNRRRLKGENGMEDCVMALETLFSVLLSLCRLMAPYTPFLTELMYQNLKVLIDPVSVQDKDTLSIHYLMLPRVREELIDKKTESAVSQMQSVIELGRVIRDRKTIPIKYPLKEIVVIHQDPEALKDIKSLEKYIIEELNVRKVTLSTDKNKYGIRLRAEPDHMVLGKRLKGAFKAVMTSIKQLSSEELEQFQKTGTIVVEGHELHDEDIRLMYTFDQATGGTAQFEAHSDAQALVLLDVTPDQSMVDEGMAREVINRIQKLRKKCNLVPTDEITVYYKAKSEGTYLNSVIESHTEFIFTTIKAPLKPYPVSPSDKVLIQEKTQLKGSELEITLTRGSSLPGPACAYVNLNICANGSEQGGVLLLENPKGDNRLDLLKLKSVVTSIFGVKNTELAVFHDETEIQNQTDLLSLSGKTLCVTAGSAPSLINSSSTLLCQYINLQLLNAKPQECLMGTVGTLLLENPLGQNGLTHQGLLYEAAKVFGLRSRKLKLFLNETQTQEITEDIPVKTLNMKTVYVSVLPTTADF

T3: myc-tagged methionyl-tRNA synthetase (MRS) (UniProt P56192 1-900)
T3 construct: also called myc-tagged MRS; not shown: myc tag
T3 sequence (looked up): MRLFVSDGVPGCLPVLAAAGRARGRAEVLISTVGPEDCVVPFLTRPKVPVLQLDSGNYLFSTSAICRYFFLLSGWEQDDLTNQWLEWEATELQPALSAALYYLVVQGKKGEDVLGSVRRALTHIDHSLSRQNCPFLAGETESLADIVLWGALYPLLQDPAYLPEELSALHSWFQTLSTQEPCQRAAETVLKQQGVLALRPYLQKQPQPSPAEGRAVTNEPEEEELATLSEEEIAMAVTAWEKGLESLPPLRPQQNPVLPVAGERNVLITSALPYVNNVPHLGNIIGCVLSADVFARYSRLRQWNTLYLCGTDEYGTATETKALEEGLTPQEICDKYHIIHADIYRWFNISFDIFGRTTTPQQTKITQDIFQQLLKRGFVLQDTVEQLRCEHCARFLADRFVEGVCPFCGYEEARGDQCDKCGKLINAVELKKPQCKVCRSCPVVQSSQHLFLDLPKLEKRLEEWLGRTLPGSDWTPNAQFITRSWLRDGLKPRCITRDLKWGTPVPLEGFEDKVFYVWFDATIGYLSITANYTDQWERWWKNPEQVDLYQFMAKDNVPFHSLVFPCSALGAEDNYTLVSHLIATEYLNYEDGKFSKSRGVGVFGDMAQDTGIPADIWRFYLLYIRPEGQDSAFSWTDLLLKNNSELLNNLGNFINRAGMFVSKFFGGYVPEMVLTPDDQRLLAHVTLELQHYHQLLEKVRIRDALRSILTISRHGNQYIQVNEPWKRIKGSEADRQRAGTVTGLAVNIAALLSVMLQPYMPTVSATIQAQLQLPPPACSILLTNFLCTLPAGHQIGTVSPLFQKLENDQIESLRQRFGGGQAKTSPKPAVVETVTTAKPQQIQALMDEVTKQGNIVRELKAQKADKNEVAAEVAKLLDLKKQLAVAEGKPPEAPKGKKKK

B1: endogenous RagD of 293T cells (enzyme, UniProt Q9NQL2 1-400, looked up)
chain: MSQVLGKPQPQDEDDAEEEEEEDELVGLADYGDGPDSSDADPDSGTEEGVLDFSDPFSTEVKPRILLMGLRRSGKSSIQKVVFHKMSPNETLFLESTNKICREDVSNSSFVNFQIWDFPGQIDFFDPTFDYEMIFRGTGALIFVIDSQDDYMEALARLHLTVTRAYKVNTDINFEVFIHKVDGLSDDHKIETQRDIHQRANDDLADAGLEKIHLSFYLTSIYDHSIFEAFSKVVQKLIPQLPTLENLLNIFISNSGIEKAFLFDVVSKIYIATDSTPVDMQTYELCCDMIDVVIDISCIYGLKEDGAGTPYDKESTAIIKLNNTTVLYLKEVTKFLALVCFVREESFERKGLIDYNFHCFRKAIHEVFEVRMKVVKSRKVQNRLQKKKRATPNGTPRVLL
notes: Endogenous protein in 293T cell lysates, detected with anti-RagD antibody
B2: GST-RagD (RagD-(1-400)) (enzyme, UniProt Q9NQL2 1-400, looked up)
chain: B1 chain
notes: range 1-400; Expressed in E. coli BL21, purified on GSH agarose; also called peptide spanning aa 1-400 of RagD; RagD protein; not shown: glutathione S-transferase (GST) tag from pGEX4T3 vector (GE healthcare)
B3: HA-tagged RagD (enzyme, UniProt Q9NQL2 1-400, looked up)
chain: B1 chain
notes: Expressed in 293T cells, used as cell lysate; also called HA-RagD; not shown: HA tag
B4: GST-LRS fragment 971-1176 (enzyme)
chain: VIASELGSMPELKKYMKKVMPFVAMIKENLEKMGPRILDLQLEFDEKAVLMENIVYLTNSLELEHIEVKFASEAEDKIREDCCPGKPLNVFRIEPGVSVSLVNPQPSNGHFSTKIEIRQGDNCDSIIRRLMKMNRGIKDLSKVKLMRFDDPLLGPRRVPVLGKEYTEKTPISEHAVFNVDLMSKKIHLTENGIRVDIGDTIIYLVH
notes: not shown: glutathione S-transferase (GST) fusion tag

Columns and labels:
[1] = molecular target: T4, endogenous LRS of 293T cells (Homo sapiens (Human), UniProt Q9P2J5 1-1176); assay: immunoprecipitation of 293T lysates with anti-Raptor antibody, anti-LRS and anti-RagD blots (FIG. 4a)
T4 construct: Endogenous protein in HEK293T cell lysates, detected with anti-LRS antibody
Description: 293T cells were starved for amino acids for 1 hour and re-stimulated with amino acids for 5 min.

[2] = molecular target: T1, His-LRS-(759-1176); assay: ELISA competition: His-LRS-(759-1176) added to GST-RagD on plate-coated His-LRS-(1-1176) (FIG. 13b)
[3] = molecular target: T5, His-LRS-(1-1176) (Homo sapiens (Human), UniProt Q9P2J5 1-1176); assay: ELISA: plate coated with LRS-(1-1176) (500 ng/ml), GST-RagD detected with anti-GST antibody (FIG. 13a)
T5 construct: Expressed in E. coli BL21(DE3), purified on Ni-chelating agarose, coated on the ELISA plate; not shown: His tag from pET16a vector

[4] = molecular target: T2, myc-tagged isoleucyl-tRNA synthetase …; assay: co-immunoprecipitation with anti-HA antibody, anti-myc blot (FIG. 3c)
Description: (§1) The co-precipitated myc-tagged protein was determined by immunoblotting with anti-myc antibodies.

[5] = molecular target: T6, myc-tagged glutamyl-prolyl-tRNA synthetase (EPRS) (UniProt P07814 1-1512); assay: as above
T6 construct: also called myc-tagged EPRS; not shown: myc tag
T6 sequence (P07814 whole entry): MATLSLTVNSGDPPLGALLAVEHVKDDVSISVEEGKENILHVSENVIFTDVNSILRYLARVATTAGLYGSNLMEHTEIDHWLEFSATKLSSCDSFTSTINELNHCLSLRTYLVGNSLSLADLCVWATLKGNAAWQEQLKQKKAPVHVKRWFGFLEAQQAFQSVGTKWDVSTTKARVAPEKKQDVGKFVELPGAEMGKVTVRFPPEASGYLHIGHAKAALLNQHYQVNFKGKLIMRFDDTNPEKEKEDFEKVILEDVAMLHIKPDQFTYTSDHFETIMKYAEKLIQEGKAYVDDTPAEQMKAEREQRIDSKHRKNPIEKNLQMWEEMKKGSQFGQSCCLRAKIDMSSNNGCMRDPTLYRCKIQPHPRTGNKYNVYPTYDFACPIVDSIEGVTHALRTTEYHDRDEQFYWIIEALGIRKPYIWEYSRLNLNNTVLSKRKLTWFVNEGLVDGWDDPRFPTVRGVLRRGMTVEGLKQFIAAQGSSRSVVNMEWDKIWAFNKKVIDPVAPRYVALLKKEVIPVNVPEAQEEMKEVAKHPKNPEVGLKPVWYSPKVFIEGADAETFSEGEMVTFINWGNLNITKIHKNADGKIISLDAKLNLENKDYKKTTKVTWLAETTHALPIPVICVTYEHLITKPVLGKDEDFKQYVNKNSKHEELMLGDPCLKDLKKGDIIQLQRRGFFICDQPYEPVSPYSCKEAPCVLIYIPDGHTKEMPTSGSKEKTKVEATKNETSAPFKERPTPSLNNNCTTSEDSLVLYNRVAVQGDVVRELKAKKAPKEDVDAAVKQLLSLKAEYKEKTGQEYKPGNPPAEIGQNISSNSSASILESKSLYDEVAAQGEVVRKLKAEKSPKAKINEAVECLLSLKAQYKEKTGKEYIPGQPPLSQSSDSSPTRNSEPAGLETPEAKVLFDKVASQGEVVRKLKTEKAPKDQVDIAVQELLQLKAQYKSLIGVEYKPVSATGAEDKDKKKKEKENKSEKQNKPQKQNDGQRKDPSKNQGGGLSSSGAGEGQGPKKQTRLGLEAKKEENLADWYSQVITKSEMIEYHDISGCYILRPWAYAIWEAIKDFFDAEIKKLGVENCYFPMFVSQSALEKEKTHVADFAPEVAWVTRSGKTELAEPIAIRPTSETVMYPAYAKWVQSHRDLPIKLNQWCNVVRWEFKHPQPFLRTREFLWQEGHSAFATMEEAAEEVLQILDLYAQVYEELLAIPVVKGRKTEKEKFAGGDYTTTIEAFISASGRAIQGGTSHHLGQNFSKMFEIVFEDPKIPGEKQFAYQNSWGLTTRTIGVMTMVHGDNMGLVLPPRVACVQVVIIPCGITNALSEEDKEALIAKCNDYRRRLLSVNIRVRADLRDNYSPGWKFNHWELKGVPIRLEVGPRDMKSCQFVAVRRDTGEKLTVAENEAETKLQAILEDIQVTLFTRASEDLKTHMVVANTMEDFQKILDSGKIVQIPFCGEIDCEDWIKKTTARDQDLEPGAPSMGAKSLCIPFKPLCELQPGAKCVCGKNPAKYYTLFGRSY
Description: as §1

[6] = molecular target: T3, myc-tagged methionyl-tRNA synthetase …; assay: as above
Description: as §1

[7] = molecular target: B3; assay: in vitro GST pull-down of HA-RagD lysate, anti-HA blot (FIG. 3h)
Description: Binding assay was conducted in 25 mM Tris-HCl buffer (pH7.4) containing 10 mM NaCl, 1 mM MgCl₂, 1 mM EDTA, 0.5 mM EGTA, and 0.5% Triton X-100.

Binder: B1
- binding result [1]: binds

Binder: B2
- binding result [2]: binds
- binding result [3]: binds

Binder: B3
- binding result [4]: no binding
- binding result [5]: no binding
- binding result [6]: no binding

Binder: B4
- binding result [7]: no binding
